In the Immune Epitope Database (IEDB):
pKd: −log10 of the molar value.

What was measured:
Test in all cases: IEDB peptide-MHC binding, purified MHC/competitive/radioactivity; filed as Kd, often an IC50 or EC50 that approximates it; ≥ and ≤ were set here for values at or beyond the usual limits of such assays
HLA-A*68:01 = biological target: HLA-A*68:01
HLA-A*11:01 = biological target: HLA-A*11:01
HLA-A*02:06 = biological target: HLA-A*02:06
HLA-A*03:01 = biological target: HLA-A*03:01
HLA-A*31:01 = biological target: HLA-A*31:01
HLA-A*33:01 = biological target: HLA-A*33:01
HLA-A*02:03 = biological target: HLA-A*02:03
[1] = source organism: Dengue virus 2 Jamaica/1409/1983
[2] = source organism: Dengue virus 1 Nauru/West Pac/1974
[3] = source organism: Vaccinia virus WR
[4] = source organism: Dengue virus 4 Philippines/H241/1956
[5] = source organism: Lassa virus Josiah
[6] = source organism: Dengue virus 1 Brazil/97-11/1997
[7] = source organism: Dengue virus 3 Martinique/1243/1999
[8] = source organism: Mammarenavirus guanaritoense

In the case of LTALNDMGK, the pKd (HLA-A*68:01; [1]) was 6.28 and the pKd (HLA-A*11:01; [1]) was 5.84.

LTIMDLHPGA gave a pKd (HLA-A*02:06; [1]) of 6.98.

LTMFLITENK showed a pKd (HLA-A*68:01; [2]) of 7.64, a pKd (HLA-A*03:01; [2]) of 8.34 and a pKd (HLA-A*11:01; [2]) of 7.52.

LTTHCTKLR was tested, and the pKd (HLA-A*31:01; [3]) was 5.07, the pKd (HLA-A*33:01; [3]) was 5.34 and the pKd (HLA-A*68:01; [3]) was 6.52. For the same sequence, the pKd (HLA-A*03:01; [3]) was no more than 4.11 and the pKd (HLA-A*11:01; [3]) was no more than 4.11.

In the case of LVFNSISAR, the pKd (HLA-A*31:01; [3]) was 8.60, the pKd (HLA-A*33:01; [3]) was 5.98 and the pKd (HLA-A*68:01; [3]) was 6.84. It also gave a pKd (HLA-A*03:01; [3]) of 8.37 and a pKd (HLA-A*11:01; [3]) of 7.57.

Sequence MGANFRAGR has a pKd (HLA-A*68:01; [4]) of 7.33.

Sequence MLNRVQILMK has a pKd (HLA-A*31:01; [3]) of 6.21, a pKd (HLA-A*33:01; [3]) of 5.56 and a pKd (HLA-A*68:01; [3]) of 6.16. The pKd (HLA-A*03:01; [3]) was 8.89 and the pKd (HLA-A*11:01; [3]) was 6.89.

MLRLFDFNK showed a pKd (HLA-A*31:01; [5]) of 6.89, a pKd (HLA-A*33:01; [5]) of 6.28 and a pKd (HLA-A*68:01; [5]) of 6.24. It also gave a pKd (HLA-A*03:01; [5]) of 7.07 and a pKd (HLA-A*11:01; [5]) of 7.30.

For MSAAIKDSK, the pKd (HLA-A*68:01; [6]) was 7.12 and the pKd (HLA-A*11:01; [6]) was 5.95.

In the case of MSHLKVALY, the pKd (HLA-A*31:01; [3]) was 6.15, the pKd (HLA-A*33:01; [3]) was 4.74 and the pKd (HLA-A*68:01; [3]) was 6.83. For the same sequence, the pKd (HLA-A*03:01; [3]) was 6.49 and the pKd (HLA-A*11:01; [3]) was 5.77.

Work on MTLMKGASKR yielded a pKd (HLA-A*31:01; [4]) of 7.11, a pKd (HLA-A*33:01; [4]) of 7.17 and a pKd (HLA-A*68:01; [4]) of 7.02.

NIHTAITQVR showed a pKd (HLA-A*68:01; [4]) of 6.78.

In the case of NMTSRMLLNR, the pKd (HLA-A*31:01; [6]) was 4.92, the pKd (HLA-A*33:01; [6]) was 7.13 and the pKd (HLA-A*68:01; [6]) was 6.33.

For NSISARALK, the pKd (HLA-A*31:01; [3]) was 7.95, the pKd (HLA-A*33:01; [3]) was 8.19 and the pKd (HLA-A*68:01; [3]) was 8.31. For the same sequence, the pKd (HLA-A*03:01; [3]) was 7.10 and the pKd (HLA-A*11:01; [3]) was 8.40.

Work on NTPECPSASR yielded a pKd (HLA-A*68:01; [7]) of 8.32.

QMWQLMYFHR was tested, and the pKd (HLA-A*31:01; [6]) was no more than 4.40 and the pKd (HLA-A*33:01; [6]) was 9.40.

QMWSLMYFHR showed a pKd (HLA-A*31:01; [7]) of 8.85 and a pKd (HLA-A*33:01; [7]) of 8.38.

Work on RLASAILNA yielded a pKd (HLA-A*02:03; [4]) of 7.64.

Sequence RSCSFKVGHH has a pKd (HLA-A*31:01; [8]) of 6.32, a pKd (HLA-A*33:01; [8]) of no more than 4.15 and a pKd (HLA-A*68:01; [8]) of no more than 4.44. The pKd (HLA-A*03:01; [8]) was 4.94.

SLAAIANQA gave a pKd (HLA-A*02:03; [7]) of 7.26.

SLVMLLVHYA showed a pKd (HLA-A*02:06; [4]) of 6.37 and a pKd (HLA-A*02:03; [4]) of 6.19.

TLCAIILGGL gave a pKd (HLA-A*02:03; [4]) of 8.43.

TLMSIVSSLH showed a pKd (HLA-A*33:01; source organism: Lymphocytic choriomeningitis virus (strain Armstrong)) of no more than 4.15.

For TLWEGSPGK, the pKd (HLA-A*03:01; [6]) was 6.48.

TMWHVTRGSV showed a pKd (HLA-A*02:03; [4]) of 7.61.

TTIITPMMR showed a pKd (HLA-A*33:01; [2]) of 7.28, a pKd (HLA-A*68:01; [2]) of 8.38 and a pKd (HLA-A*11:01; [2]) of 6.67.

Work on VIYDSKFEK yielded a pKd (HLA-A*03:01; [7]) of 7.19 and a pKd (HLA-A*11:01; [7]) of 7.38.

In the case of VQTAPGTFK, the pKd (HLA-A*11:01; source organism: Dengue virus 1 Singapore/S275/1990) was 6.89.

For VSQLAKRFSK, the pKd (HLA-A*11:01; [2]) was 6.90.

VSSVNTTSK showed a pKd (HLA-A*11:01; [4]) of 5.86.

With VTNPAVLRK the pKd (HLA-A*03:01; [6]) was 8.37 and the pKd (HLA-A*11:01; [6]) was 7.78.

YLWEVKKQR gave a pKd (HLA-A*33:01; [1]) of 7.18.

YVASYLLAAL showed a pKd (HLA-A*02:03; source organism: Homo sapiens) of 8.98.
